Measurements: article doi:10.1101/467969 (bioRxiv, 2018)

Target: the molecule itself
Assay: cryo-EM structure

B1: mouse TRPC5 construct lacking the C-terminal 210 residues (a.a. 1-765) (domain or fragment, UniProt Q9QX29 1-765, looked up)
chain: MAQLYYKKVNYSPYRDRIPLQIVRAETELSAEEKAFLSAVEKGDYATVKQALQEAEIYYNVNINCMDPLGRSALLIAIENENLEIMELLLNHSVYVGDALLYAIRKEVVGAVELLLSYRKPSGEKQVPTLMMDTQFSEFTPDITPIMLAAHTNNYEIIKLLVQKRVTIPRPHQIRCNCVECVSSSEVDSLRHSRSRLNIYKALASPSLIALSSEDPILTAFRLGWELKELSKVENEFKAEYEELSQQCKLFAKDLLDQARSSRELEIILNHRDDHSEELDPQKYHDLAKLKVAIKYHQKEFVAQPNCQQLLATLWYDGFPGWRRKHWVVKLLTCMTIGFLFPMLSIAYLISPRSNLGLFIKKPFIKFICHTASYLTFLFMLLLASQHIVRTDLHVQGPPPTVVEWMILPWVLGFIWGEIKEMWDGGFTEYIHDWWNLMDFAMNSLYLATISLKIVAYVKYNGSRPREEWEMWHPTLIAEALFAISNILSSLRLISLFTANSHLGPLQISLGRMLLDILKFLFIYCLVLLAFANGLNQLYFYYETRAIDEPNNCKGIRCEKQNNAFSTLFETLQSLFWSVFGLLNLYVTNVKARHEFTEFVGATMFGTYNVISLVVLLNMLIAMMNNSYQLIADHADIEWKFARTKLWMSYFDEGGTLPPPFNIIPSPKSFLYLGNWFNNTFCPKRDPDGRRRRHNLRSFTERHADSLIQNQHYQEVIRNLVKRYVAAMIRNSKTNEGLTEENFKELKQDISSFRYEVLDLLGNRK
Q: For B1, which “stoichiometry N” value is on record?
A: Its value is 4.
